Data: PMC12447578, “Syndecan-4 interacts directly with β-parvin and regulates the ILK-PINCH-β-parvin complex, the β-parvin-β-PIX-Rac1 axis, and cardiomyocyte geometry in a sex-dependent manner” (Frontiers in Cell and Developmental Biology, 2025)

Tests used:
[1] = biological target: Biotin-ahx-SDC4cyt (human, rat and mouse (identical)); experiment: SPR; Biacore X100; biotin-ahx-SDC4cyt immobilised on SA chip at 100-200 RU; parvin as analyte 26.5-277.7 nM in Hepes pH 7.4, 150 mM NaCl, 3 mM EDTA, 0.005% Surfactant P20; 30 µL/min, 180 s association, 600 s dissociation; 1:1 Langmuir model
[2] = system: FL β-parvin 20′mer overlapping peptides; experiment: Peptide overlay: 20-mer β-parvin peptides overlaid with recombinant ILK (S343D); type: binding, rat; conditions: peptide array, O/N, 4°C, ILK antibodies, n = 4 membranes
Text: Full-length (FL) recombinant human C-Myc/DDK-β-parvin was obtained from OriGene (TP308490, Rockville, MD, United States). Recombinant rat 8xHIS-β-parvin (85% purity), rat 8xHIS-α-parvin (85% purity), and mouse 8xHIS-ILK (S343D) (75% purity) were custom-made by GenScript.
The cytoplasmic tail of syndecan-4 (mouse) or FL β-parvin (rat) protein was synthesized as 20′mer overlapping peptides with 3 amino acids offset onto a cellulose membrane by a Multipep automated peptide synthesizer (CEM Corporation, Matthews, NC, United States) ([Frank and Overwin, 1996]). After membrane blocking, antibodies, or a solution with recombinant protein or biotin-ahx-SDC4 were added and incubated O/N at 4°C. Membranes were developed as described for immunoblotting.

Chain of Biotin-ahx-SDC4cyt (human, rat and mouse (identical)) (P31431 171-198): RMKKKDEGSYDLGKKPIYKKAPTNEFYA

Kd [1] [nM]	koff [1] [s⁻¹]	kon [1] [M⁻¹ s⁻¹]	Molecule	ILK binding site in β-parvin (CH2 domain) [2]
11.1	8.6e-05	10000	Recombinant rat 8xHIS-β-parvin (natural protein)	–
–	–	–	ILK (S343D): Recombinant mouse 8xHIS-ILK (S343D), custom-made by GenScript (protein, left off: 8xHIS, end not stated, state not stated, Recombinant mouse 8xHIS-ILK (S343D), custom-made by GenScript) MDDIFTQCREGNAVAVRLWLDNTENDLNQGDDHGFSPLHWACREGRSAVVEMLIMRGARINVMNRGDDTPLHLAASHGHRDIVQKLLQYKADINAVNEHGNVPLHYACFWGQDQVAEDLVANGALVSICNKYGEMPVDKAKAPLRELLRERAEKMGQNLNRIPYKDTFWKGTTRTRPRNGTLNKHSGIDFKQLNFLAKLNENHSGELWKGRWQGNDIVVKVLKVRDWSTRKSRDFNEECPRLRIFSHPNVLPVLGACQAPPAPHPTLITHWMPYGSLYNVLHEGTNFVVDQSQAVKFALDMARGMAFLHTLEPLIPRHALNSRSVMIDEDMTARISMADVKFDFQCPGRMYAPAWVAPEALQKKPEDTNRRSADMWSFAVLLWELVTREVPFADLSNMEIGMKVALEGLRPTIPPGISPHVCKLMKICMNEDPAKRPKFDMIVPILEKMQDK	bound a few amino acids upstream of the syndecan-4 core binding site
